Results as given in patent publication US6946588B2, “Nucleic acid encoding a modified threonine deaminase and methods of use” (Monsanto Technology LLC, priority 1996, dated 2005).
Read-outs that look alike come from different tables or passages of the source.

What was measured:
[1] = substrate: CC(C)(COP(=O)(O)OP(=O)(O)OC[C@H]1O[C@@H](n2cnc3c(N)ncnc32)[C@H](O)[C@@H]1OP(=O)(O)O)[C@@H](O)C(=O)NCCC(=O)NCCS; assay: purified protein, by the assay type; conditions: other: thiolysis, 25° C., β-ketocaproyl-CoA fixed at 60 μM
Method: To enhance further our understanding of the kinetic characteristics of BktB β-ketothiolase, a thorough kinetic analysis of the enzyme's thiolysis activity was conducted using purified protein. The assay to determine the kinetic parameters Km and Vmax for βketobutyryl-CoA (C4), β-ketovaleryl-CoA (C5), and β-ketocaproyl-CoA (C6), was performed at 25° C. by the in situ generation of the β-keto compounds from their corresponding trans-2,3-enoyl-CoAs essentially as described by Haywood et al. (1988). Utilization of variable substrate concentrations permitted the determination of the descriptive kinetic parameters of the β-ketothiolase.
The assay mixture (1 ml final volume) contained 150 mM EPPS, pH 8.0, 50 mM MgCl2, 1.5 mM pyruvate, 0.4 mM NAD+, and a coupling enzyme cocktail of three units crotonase, five units β-hydroxyacyl-CoA dehydrogenase, and 10 units lactic dehydrogenase. The enoyl-CoA was added to this mixture and the absorbance at 304 nm was monitored until it reached a plateau (typically about 5 min). CoA was added to this mixture, followed by BktB β-ketothiolase to initiate the reaction. The decrease in absorbance at 304 nm due to the thiolysis of the β-ketoacyl-CoA was utilized as a direct measure of activity. […] Reaction rates were calculated in the steady-state within the first minute following initiation. […]

[2] = tested on: E. coli biosynthetic threonine deaminase; conditions: for Threonine Deaminase Specific Activity / % activity relative to the results with 0 mM isoleucine: 10 mM threonine; for Hill Coefficient (n) / Km: fit to Hill equation; for Km: read-out: Km Threonine
Method: Kinetic analysis of the wild-type and mutant threonine deaminases was performed by determining threonine turnover catalyzed by these threonine deaminases as assayed by the method of Burns (1971). Specifically, α-keto-butyrate production was monitored by coupling to L-lactic dehydrogenase (LDH)-catalyzed reduction of the α-ketoacid in the presence of NADH to form (L)-2-hydroxybutyrate and NAD+. The disappearance of NADH absorbance at 340 nm provides a measure of the threonine deaminase activity. Final reaction conditions were 100 mM KPi, pH 7.8, 0.20 mM NADH, 10 units/mL LDH (defined as LDH turnover of α-ketobutyrate, not pyruvate), and variable threonine. R. Rubrum was grown according to Brandl et al., 1989. The growth and induction of E. coli cells overexpressing the mutant and wild-type biosynthetic threonine deaminases is described above. Cell extracts of R. Rubrum and E. coli were prepared by sonicating pelleted cells (≈0.5 g from 100 ml of culture) in 2 ml of 100 mM KPi, pH 7.0, containing 5% (v/v) glycerol. After centrifugation to remove cellular debris, protein concentrations were determined by the method of Bradford (1976), and threonine deaminase activity was measured.
The kinetic parameters Km and Vmax, and the level of positive cooperativity, i.e., the deviation from normal saturation kinetics where at low substrate concentration the substrate turnover rate is less than a non-cooperative system, were determined. These values were found by fitting the rate data to the Hill equation (Equation 1), which incorporates the coefficient n into the normal Michaelis-Menten equation (n=1 for a non-cooperative system).
In addition to the kinetic parameters, the degree of inhibition of threonine deaminase by isoleucine was also measured at fixed levels of threonine.

[3] = tested on: threonine deaminase; assay: Threonine deaminase activity in extracts of transformed E. coli DH5α (in vivo analysis of cloned ilvA genes); assay type: biochemical; conditions: 0 mM isoleucine, 10 mM threonine
Description: E. coli DH5α cells were transformed with pJM9238 (Kidwell et al., 1995) containing the PHB operon of A. eutrophus by CaCl2/heat shock treatment The PHB operon was under the inducible control of the ptac promoter. E. coli containing pJM9236 were used as a background control with respect to threonine deaminase activity.
E. coli DH5α cells were also cotransformed by CaCl2/heat shock treatment with pJM9238 and pMON25660 (FIG. 5) containing the wild-type E. coli threonine deaminase, under ptrc inducible control.
In a third experiment, E. coli DH5α cells were cotransformed with pJM9238 and pMON25683 (FIG. 11) containing the mutant E. coli ilvA466 (L481F) threonine deaminase, under ptrc inducible control.
(§1) Transformed cells were grown on M9 minimal salts plus 0.2% gluconate and 25 mM L-threonine. At early log phase, the cells were induced with IPTG to induce expression of all four enzymes (i.e., PhbA, PhbB, PhbC, and IlvA or IlvA466). […] The level of α-ketobutyrate was determined by reverse-phase HPLC isolation of the dinitrophenylhydrazine derivative of the α-ketoacid according to Qureshi et al., (1982). Quantitation was based on peak integration comparisons to a standard curve.

[4] = tested on: E. coli DH5α cells; assay: Intracellular α-ketobutyrate in transformed E. coli DH5α (HPLC of dinitrophenylhydrazine derivative); assay type: cell-based; conditions: for [α-ketobutyrate]: 1 ml extract from approximately 50 mg cells, M9 + 0.2% gluconate + 25 mM L-threonine; for α-ketobutyrate level relative to cells containing no overexpressed threonine deaminase: transformed E. coli DH5α
Method: as §1

[5] = tested on: soybean callus; assay: Expression and activity of E. coli IlvA in stably transformed soybean callus; assay type: cell-based; conditions: soybean calli 518-4, 518-15, 518-16, 518-17 transformed with pMON25668
Description: As shown above, the E. coli IlvA proteins can be functionally expressed in a plant transient expression system. In order to test the expression of a biosynthetic threonine deaminase in a stably transformed plant tissue, non-differentiating callus derived from soybean hypocotyl tissue was transformed with a plasmid containing the E. coli wild-type ilvA threonine deaminase gene using Agrobacterium tumefaciens ABI (Koncz and Schell, 1986).
Soybean callus tissue was transformed with binary Ti plasmid pMON25668 (FIG. 17). Plasmid pMON25668 contains the e35S-expressed, plastid-targeted (ARABSSU1A) E. coli wild-type ilvA threonine deaminase gene, the e35S-expressed, plastid-targeted (ARABSSU1A) A. eutrophus phbA (β-ketothiolase) gene, and the e35s-expressed neomycin phosphotransferase type II (NptII) gene for kanamycin resistance. […] contains two border sequences for T-DNA transfer into the plant chromosome. The right border sequence is the only border required for T-DNA transfer into the plant; however, including the left border sequence terminates T-DNA integration at that point, thereby limiting the unnecessary incorporation of “extra” DNA sequences into the plant chromosome. pMON25668 also contains the minimun sequence of ori-322 for replication and maintenance in E. coli as well as ori-V of the broad host origin RK2 for replication in Agrobacterium. […]

B1: BktB β-ketothiolase (Cupriavidus necator H16) (protein)
chain: TREVVVVSGVRTAIGTFGGSLKDVAPAELGALVVREALARAQVSGDDVGHVVFGNVIQTEPRDMYLGRVAAVNGGVTINAPALTVNRLCGSGLQAIVSAAQTILLGDTDVAIGGGAESMSRAPYLAPAARWGARMGDAGLVDMMLGALHDPFHRIHMGVTAENVAKEYDISRAQQDEAALESHRRASAAIKAGYFKDQIVPVVSKGRKGDVTFDTDEHVRHDATIDDMTKLRPVFVKENGTVTAGNASGLNDAAAAVVMMERAEAERRGLKPLARLVSYGHAGVDPKAMGIGPVPATKIALERAGLQVSDLDVIEANEAFAAQACAVTKALGLDPAKVNPNGSGISLGHPIGATGALITVKALHELNRVQGRYALVTMCIGGGQGIAAIFERI
Km [1]: 0.053 ± 0.006 mM

B2: E. coli wild-type: wild-type E. coli biosynthetic threonine deaminase encoded by the ilvA gene (SEQ ID NO:1) (protein, listed as Escherichia coli)
chain: MADSQPLSGAPEGAEYLRAVLRAPVYEAAQVTPLQKMEKLSSRLDNVILVKREDRQPVHSFKLRGAYAMMAGLTEEQKAHGVITASAGNHAQGVAFSSARLGVKALIVMPTATADIKVDRLRGFGGEVLLHGANFDEAKRKAIELSQQQGFTWVPPFDHPMVIAGQGTLALELLQQDAHLDRVFVPVGGGGLAACVAVLIKQLMPQIKVIAVEAEDSACLKAALDAGHPVDLPRVGLFAEGVAVKRIGDETFRLCQEYLDDIITVDSDAICAAMKDLFEDVRAVAEPSGALALAGMKKYIALHNIRGERLAHILSGANVNFHGLRYVSERCELVEQREALLAVTIPEEKGSFLKFCQLLGGRSVTEFNYRFADAKNACIFVGVRLSRGLEERKEILQMLNDGGYSVVDLSDDEMAKLHVRYMVGGRPSHPLQERLYSFEFPESPGALLRFLNTLGTYWNISLFHYRSHGTDYGRVLAAFELGDHEPDFETRLNELGYDCHDETNNPAFRFFLAG
Threonine Deaminase Specific Activity ([2]; 0 mM isoleucine): 16.7 u/mg | % activity relative to the results with 0 mM isoleucine ([2]; 1.0 mM isoleucine): < 2% | Threonine Deaminase Specific Activity ([2]; 1.0 mM isoleucine): 0.3 u/mg | % activity relative to the results with 0 mM isoleucine ([2]; 10.0 mM isoleucine): < 2% | Threonine Deaminase Specific Activity ([2]; 10.0 mM isoleucine): 0.3 u/mg | Hill Coefficient (n) [2]: 1.5 ± 0.2 | Km [2]: 5 ± 1 mM | Threonine Deaminase Specific Activity [3]: 4.20 u/mg | [α-ketobutyrate] [4]: 41.8 µM | α-ketobutyrate level relative to cells containing no overexpressed threonine deaminase [4]: about a three-fold increase | expression (Western blot) and enzymatic activity in transformed calli [5]: can be expressed and maintain enzymatic activity

B3: E. coli L481F (protein)
chain: MADSQPLSGAPEGAEYLRAVLRAPVYEAAQVTPLQKMEKLSSRLDNVILVKREDRQPVHSFKLRGAYAMMAGLTEEQKAHGVITASAGNHAQGVAFSSARLGVKALIVMPTATADIKVDAVRGFGGEVLLHGANFDEAKAKAIELSQQQGFTWVPPFDHPMVIAGQGTLALELLQQDAHLDRVFVPVGGGGLAAGVAVLIKQLMPQIKVIAVEAEDSACLKAALDAGHPVDLPRVGLFAEGVAVKRIGDETFRLCQEYLDDIITVDSDAICAAMKDLFEDVRAVAEPSGALALAGMKKYIALHNIRGERLAHILSGANVNFHGLRYVSERCELGEQREALLAVTIPEEKGSFLKFCQLLGGRSVTEFNYRFADAKNACIFVGVRLSRGLEERKEILQMLNDGGYSVVDLSDDEMAKLHVRYMVGGRPSHPLQERLYSFEFPESPGALLRFLNTLGTYWNISLFHYRSHGTDYGRVLAAFEFGDHEPDFETRLNELGYDCHDETNNPAFRFFLAG
Threonine Deaminase Specific Activity ([2]; 0 mM isoleucine): 20.3 u/mg | % activity relative to the results with 0 mM isoleucine ([2]; 1.0 mM isoleucine): 56% | Threonine Deaminase Specific Activity ([2]; 1.0 mM isoleucine): 11.3 u/mg | % activity relative to the results with 0 mM isoleucine ([2]; 10.0 mM isoleucine): < 2% | Threonine Deaminase Specific Activity ([2]; 10.0 mM isoleucine): 0.3 u/mg | Hill Coefficient (n) [2]: 1.22 ± 0.01 | Km [2]: 3.08 ± 0.03 mM | Threonine Deaminase Specific Activity [3]: 0.59 u/mg | [α-ketobutyrate] [4]: 579 µM | α-ketobutyrate level relative to cells containing no overexpressed threonine deaminase [4]: greater than 40 times
